Results: patent US8247535B2, “Directed evolution of GRG31 EPSP synthase enzyme” (Athenix Corp., priority 2008, dated 2012)
Substitutions are numbered along the chain they refer to.

B1: 6b2: GRG31 variant N95→S, A206→V, SEQ ID NO:18 (protein)
chain: MNQQVITLTHPSKKIQGTVQLTGSKSESNRALIIQSLSKGQVEIANLSEAADTVTLNRVLQIASDPKPGFNTIDIGPAGTAMRFLTAYLNLVKGSFILTGTERMQQRPIGILVDAMKEIGADIHYDKKVGYPPLKIEGGLFQEKDRVKIKGNISSQYISALLLIAPALKKGLTLEIEGELTSRPYVSMTLDMLKSVGIQHEWKNNVIKIAPQAFEKQTIYVEPDWSAASYWYAIAALADANASIVLPGLRKNSLQGDIAIISIMEHFGVQSSFESDGLHLNKKVIGSDVSLFNFKECPDLAQTVVVVAAALKRDVSFTGLETLKIKETDRIAALQKEIAKFGAELIEDGDTYHLKTAQVYQPEEVTFDTYEDHRMAMAFAPLALVFDQIKIAEPQVVEKSYPDFWNHLQAQAFVIE
modifications: GRG31 variant (clone 6b2)
B2: 6e7: GRG31 variant E215→K, SEQ ID NO:19 (protein)
chain: B1 chain with S95N, V206A, E215K
modifications: GRG31 variant (clone 6e7)
B3: GRG31: native (wild-type) GRG31 EPSP synthase, SEQ ID NO:2 (protein)
chain: B1 chain with S95N, V206A

Experiments:
GRG31 EPSP synthase [1] = experiment: Kinetic analysis of GRG31 variants (Ki for glyphosate, Km for PEP, Vmax); type: biochemical; design: Vmax: unit not given here; conditions: for Ki: Ki for glyphosate, calculated from plot of Km(app) vs. glyphosate concentration; for Km: Km for PEP; for Vmax: unit not given
Procedure: GRG31 variants L3P2b11, L3P2c11 and L4e11, and L5e3 were characterized by enzymatic assays as described herein, and compared to the native GRG31 enzyme. For each enzyme the apparent Km (Km(app)) was determined at each of several glyphosate concentrations, and a plot of Km(app) vs. glyphosate concentration was used to calculate the Ki for each enzyme. The thermostability for each enzyme was assessed by incubating the enzyme at 37° C. for 16 hours, and then quantifying the enzymatic activity remaining (as Vmax) vs. control enzyme that was incubated at 4° C.

GRG31 EPSP synthase [2] = experiment: Thermostability of extracts of GRG31 point mutants at 37° C.; type: biochemical; conditions: for thermostability of extracts of error prone PCR clones: extracts of 95 clones, in words
Procedure: To improve the thermostability of GRG31, error prone PCR mutagenesis of GRG31 was performed. Forty-five thousand (45,000) clones were plated onto 50 mM glyphosate, and ninety-five (95) clones were picked.
To further investigate the contributions of various substitutions in these positions, several point mutations were generated at positions corresponding to amino acid positions 95, 206, and 215 of GRG31. Extracts of point mutants were tested for thermostability at 37° C.: […]

GRG31 EPSP synthase [3] = experiment: Thermostability of purified GRG31 variant proteins (4 hrs at 37° C.); type: biochemical; conditions: in words
Procedure: GRG31 variants L3P2b11, L3P2c11 and L4e11, and L5e3 were characterized by enzymatic assays as described herein, and compared to the native GRG31 enzyme. For each enzyme the apparent Km (Km(app)) was determined at each of several glyphosate concentrations, and a plot of Km(app) vs. glyphosate concentration was used to calculate the Ki for each enzyme. […]
Three variants (6b2, 6e7, and the triple EK (N95S A206V E215K; SEQ ID NO:20)) were grown, their proteins purified, and the thermostability of the proteins analyzed in more detail.

GRG31 EPSP synthase [4] = type: biochemical
Procedure: The thermostability of several variants of GRG31 was analyzed by measuring survival of activity at 37° C.

BL21*DE3 cells = experiment: Glyphosate growth screen on agar plates; type: cell-based, E. coli; conditions: 1×M63 minimal medium; 0.05 mM IPTG; expression construct pAX1945
From the text: A glyphosate growth screen was developed. […] Library 1 was cloned into pAX1945 between the MfeI and AlwN1 restriction sites.
Clone pAX3625 contains a grg31 variant having an in-frame stop codon that disrupts the GRG31 open reading frame.

[5] = extracts of point mutants, Table 8
[6] = extracts, separate experiment, Table 9

Row | Molecule | Ki (GRG31 EPSP synthase [1]) [µM] | Km (GRG31 EPSP synthase [1]) [µM] | improvement in Km for PEP relative to GRG31 (GRG31 EPSP synthase [1]; relative to GRG31, in words) | Vmax (GRG31 EPSP synthase [1]) | thermostability of extracts of error prone PCR clones (GRG31 EPSP synthase [2]) | Percent of Wt GRG31 activity (4 hrs at 37° C.) (GRG31 EPSP synthase [2]; [5]) [%] | Percent of Wt GRG31 activity (4 hrs at 37° C.) (GRG31 EPSP synthase [2]; [6]) [%] | thermostability compared to wild-type GRG31 (GRG31 EPSP synthase [3]) | Vmax improvement over GRG31 (GRG31 EPSP synthase [1]; relative to GRG31) [fold] | Vmax relative to GRG31 (GRG31 EPSP synthase [1]; relative to GRG31, in words) | t1/2 at 37° C. (GRG31 EPSP synthase [4]) [h] | glyphosate concentration of agar plates on which cells grow (BL21*DE3 cells)
1 | B1 | 92 | 6.5 | improved (lower) | 34 | increased thermostability | 228 | 139 | increased thermostability |  |  |  | 
2 | B2 | 111 | 3.4 | improved (lower) | 62 | increased thermostability | 213 | 152 | increased thermostability | 2 | improved |  | 
3 | B3 | 73 | 23 |  | 29.3 |  |  |  |  |  |  | 2.7 | up to 50 mM
